Measured values from paper PMC8962522, “Direct interaction of TrkA/CD44v3 is essential for NGF-promoted aggressiveness of breast cancer cells” (Journal of Experimental & Clinical Cancer Research : CR, 2022).
Values belong to the binder of their own block, whether it stands above or below them.

Target: T1, TrkA-His tagged extracellular domain protein (Ala 34-Gly423) (UniProt P04629 34-423, RED-Tris-NTA dye on the His tag (Monolith His-Tag Labeling Kit))
T1 construct: TrkA (tropomyosin kinase A) extracellular domain, Ala34-Gly423; The TrkA used for nanoDSF is not described; source: bought: R&D Systems (9966-TK-050)
Assay: MST; binding check: peptides and TrkA-His labelled with RED-Tris-NTA; PBS-T; high MST power, 100% LED
Settings: both partners purified

T1 sequence (P04629 34-423): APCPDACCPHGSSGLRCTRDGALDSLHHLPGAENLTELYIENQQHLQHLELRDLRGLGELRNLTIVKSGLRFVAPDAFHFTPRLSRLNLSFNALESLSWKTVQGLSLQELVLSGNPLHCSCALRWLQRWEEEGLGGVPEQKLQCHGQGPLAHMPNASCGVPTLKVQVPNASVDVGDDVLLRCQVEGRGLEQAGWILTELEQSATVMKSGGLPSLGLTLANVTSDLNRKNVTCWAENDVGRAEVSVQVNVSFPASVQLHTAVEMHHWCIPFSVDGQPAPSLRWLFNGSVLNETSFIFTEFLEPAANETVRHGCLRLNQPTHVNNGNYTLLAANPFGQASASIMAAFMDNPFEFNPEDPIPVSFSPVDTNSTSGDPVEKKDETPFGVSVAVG

binding result: binds
B1: CD44v3 mimetic peptide 4 (peptide)
peptide: IDDDEDFISST
notes: zone 4, the C-terminal region of CD44 variant exon v3; numbers count on: exon v3 (D34, F38 as printed); also called P4; CD44v3 C-terminal-mimicking peptide; source: synthetic peptide

binding result: binds
B2: CD44v3 mimetic peptide 3 (peptide)
peptide: RDRHLSFSGSG
notes: zone 3 of CD44 variant exon v3; not glycosylated; numbers count on: exon v3; also called P3; source: synthetic peptide
